In paper PMC6887587:

Legend:
[1] = molecular target: FHR4/VHH(T) trifunctional heteromultimer, Clone IA3 (third single-cell sorting) (human); assay: SPR; Biacore 3000, CM5 chip; 10 000 RU of purified multimer immobilised by amine coupling; C3b 2.5, 5, 10 and 20 µg/mL injected in HBS-EP (10 mM Hepes pH 7.4, 150 mM NaCl, 3 mM EDTA, 0.05% P20) with 20 mM MgCl2, 5 min at 30 µL/min, 5 min dissociation; 1:1 Langmuir fit
[2] = molecular target: FHR4/VHH(T) trifunctional heteromultimer, Clone 2E3 (first single-cell sorting) (human) (UniProt P04003); assay: as above
UniProt P04003, sequence (P04003 whole entry, looked up, one chain of several): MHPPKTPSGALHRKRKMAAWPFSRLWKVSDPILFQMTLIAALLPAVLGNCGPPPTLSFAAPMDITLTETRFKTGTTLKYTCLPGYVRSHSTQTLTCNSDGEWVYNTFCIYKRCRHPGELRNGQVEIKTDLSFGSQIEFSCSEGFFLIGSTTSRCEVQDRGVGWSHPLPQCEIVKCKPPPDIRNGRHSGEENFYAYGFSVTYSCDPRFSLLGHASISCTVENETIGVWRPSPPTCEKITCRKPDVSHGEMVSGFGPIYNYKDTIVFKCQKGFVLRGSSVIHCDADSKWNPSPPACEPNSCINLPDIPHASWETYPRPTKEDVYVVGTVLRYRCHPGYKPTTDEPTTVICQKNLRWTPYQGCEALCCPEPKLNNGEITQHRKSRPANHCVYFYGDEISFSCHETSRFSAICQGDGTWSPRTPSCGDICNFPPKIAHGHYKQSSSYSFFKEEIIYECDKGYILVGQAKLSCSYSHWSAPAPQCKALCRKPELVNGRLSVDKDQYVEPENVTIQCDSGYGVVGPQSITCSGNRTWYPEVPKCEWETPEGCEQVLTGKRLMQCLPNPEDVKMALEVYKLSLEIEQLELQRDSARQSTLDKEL

A Ka [1] of 4.48e+06 M⁻¹, a Kd [1] of 223 nM and a final C3b binding (RU) [1] of 78.6 RU were found for “C3b (from UniProt P01024 749-1663; P01024 749-1663) (natural protein)” in this work. It also gave a maximum C3b binding at 20 µg/mL C3b (RU) [1] of 136 RU, a Ka [2] of 3.65e+06 M⁻¹ and a Kd [2] of 274 nM. For the same substance, the final C3b binding (RU) [2] was 58 RU and the maximum C3b binding at 20 µg/mL C3b (RU) [2] was 100 RU.
